The numbers were not newly measured in paper PMC7887631, which cites them from elsewhere.

Broadly, the Kd is the free concentration of one partner at which half of the binding sites on the other are occupied at equilibrium, for simple one-to-one binding.

For the data set, the target named is Prion protein (PrPC) (UniProt P04156).

As to STI1 (from UniProt P31948), the Kd is 100 nM.
